According to patent US20100261778, “Tumor Suppressor Killin” (published 2010):

Molecular target: T1, Killin/N8-50 peptide (Homo sapiens, UniProt B2CW77 SEQ:8-49)
T1 chain: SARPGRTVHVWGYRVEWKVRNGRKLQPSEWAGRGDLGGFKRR
Assay: EMSA; apparent Kd; 20 mM Tris-Cl pH 8.4, 25 mM KCl, 1.5 mM MgCl2, 100 ug/mL BSA, RT
Conditions: protein: synthetic, tags: chemically synthesized 42 aa peptide (Sigma-Genosys, at least 70% purity)
Text: After annealing, probes for artificial replication fork (LL and RL) or double-stranded DNA template (LL and RLM) were end-labeled with α-³²P-dATP (Perkin-Elmer) using Klenow (New England Biolab). Single-stranded oligonucleotide (LL) was end-labeled with […] (Perkin-Elmer) using T4 polynucleotide kinase (New England Biolab). After purifying with Sephadex-G50 spin columns (Roche), the labeled probes (200,000 CPM each) were mixed with an increasing amount of Killin/N8-50 peptide in the presence of 20 mM Tris-Cl (pH 8.4), 25 mM KCl, 1.5 mM MgCl₂ and 100 μg/mL of BSA. The reaction mixtures were incubated at RT for 30 min and separated on a 6% polyacrylamide gel with 1× TBE buffer. After drying the gel onto a Whatman No. 1 filter paper, the DNA-protein complexes were visualized by autoradiography. For binding kinetics, bands from DNA-peptide complex were excised and the radioactivity was determined by scintillation counting. To determine the stability of the DNA-Killin peptide complex, 0.5 μg of either double-stranded (RF form) or single-stranded (viral form) of PhiX174 bacterial phage DNA (New England Biolab) were incubated at room temperature for 30 min with 1 ug of Killin/N8-50 peptide in a 20 μL reaction. The samples were then resolved on a 0.8% TAE agarose gel and stained with ethidium bromide.

B1: LL single-stranded oligonucleotide (ssDNA)
DNA: TTTGCACGTCGGATCCGACCCAGACTACGGAGGCC
Kd (label: 32P (T4 PNK)): 0.5 µM

B2: LL/RL artificial replication fork (structured_DNA)
DNA 1: TTTGCACGTCGGATCCGACCCAGACTACGGAGGCC
DNA 2: CCGGAGGCATCAGACGGTCGGATCCGACGTGC
Kd (label: 32P (Klenow fill-in), replication fork with unpaired arms): 1 µM

B3: LL/RLM double-stranded DNA (dsDNA)
DNA 1: TTTGCACGTCGGATCCGACCCAGACTACGGAGGCC
DNA 2: GGCCTCCGTAGTCTGGGTCGGATCCGACGTGC
Kd (label: 32P (Klenow fill-in)): 1 µM
